Results on 25 molecules are retold here after US6512097.

For assay [1], the target named is T1, c-erbB-2 ECD with a Ser-Gly-His6 C-terminal fusion (UniProt P04626 23-652).
T1 construct: extracellular domain; Expressed from CHO cells, IMAC purified; coupled to a CM5 chip, coated on plates, or biotinylated with NHS-LC-biotin; also called c-erbB-2 extracellular domain; biotinylated c-erbB-2 ECD
Nature of the assay: SPR BIAcore. As to the method:
All assays were performed in triplicate. Briefly, […] of radioiodinated sFv was added to 5×10^6 SK-OV cells in the presence of increasing concentrations of unlabeled sFv from the same preparation. After a 30 minute incubation at 20° C., the samples were washed with PBS at 4° C. and centrifuged at 500 g. The amount of labeled sFv bound to the cells was determined by counting the pellets in a gamma counter and the K_a, and K_d were calculated using the EBDA program (V 2.0, G. A. McPherson, 1983). The K_d of all the other isolated sFv were determined using surface plasmon resonance in a BIAcore (Pharmacia). In a BIAcore flow cell, approximately 1400 resonance units (RU) of c-erbB-2 ECD (25 μg/ml in 10 mM sodium acetate, pH 4.5) was coupled to a CM5 sensor chip (Johnsson et al. (1991), supra). Association and dissociation-rates were measured under continuous flow of […] using a concentration range from 50 to 800 nM. Rate constant $kon$ was determined from a plot of (1(dR/dt))/t vs concentration (Karlsson et al. (1991), supra). Rate constant $Hoff$ was determined from the dissociation part of the sensorgram at the highest concentration of sFv analyzed.
Mutants obtained by combining mutations of C6MH3-B1 or C6MH3-B47 with mutations from D library clones (D1, D2, D3, D5, D6). Rate constants $kon$ and $koff$ were measured by SPR in a BIAcore, and the K_d calculated.

Assay [2] concerns the target T1, c-erbB-2 ECD with a Ser-Gly-His6 …. Description: SPR BIAcore. This is another data set of the same source. (SPR reads the build-up and loss of mass on a sensor chip optically.)

Positions count from the first letter of the chain named. In names and notes the source's numbering stands. Like-named read-outs stand apart in the source and are kept apart here.

B1: C6-9L1 (scFv)
scFv: QVQLLQSGAELKKPGESLKISCKGSGYSFTSYWIAWVRQMPGKGLEYMGLIYPGDSDTKYSPSFQGQVTISVDKSVSTAYLQWSSLKPSDSAVYFCARHDVGYCSSSNCAKWPEYFQHWGQGTLVTVSSGGGGSGGGGSGGGGSQSVLTQPPSVSGAPGQWVTISCSGSSSNIGNNYVSWYQQLPGTAPKLLIYDNNKRPSGVPDRFSGSQSGTSASLAISGLRSEDEADYYCASWDYTLSGWVFGGGTKLTVLG
notes: C6L1 with the VL CDR3 of C6ML3-9
For the molecule B1, in assay [1], the equilibrium dissociation constant (Kd) came out at 0.33 nM, the “Kd (C6.5)/Kd (mut)” value is 49, the “Kd (parent)/Kd (mut)” value worked out at 3 and the off-rate constant (koff) was 0.0003 s⁻¹. The molecule also came in with an association rate constant (kon) in assay [1] of 920000 M⁻¹ s⁻¹.

B2: C6-B1D1 (scFv)
scFv: QVQLLQSGAELKKPGESLKISCKGSGYSFTSYWIAWVRQMPGKGLEYMGLIYPGDSDTKYSPSFQGQVTISVDKSVSTAYLQWSSLKPSDSAVYFCARHDVGYCTDRTCAKWPEWLHVWGQGTLVTVSSGGGGSGGGGSGGGGSQSVLTQPPSVSAAPGQKVTISCSGSSSNIGNNYVSWYQQLPGTAPKLLIYGHTNRPAGVPDRFSGSKSGTSASLAISGFRSEDEADYYCASWDYTLSGWVFGGGTKLTVLG
notes: Combined B and D library mutations on C6ML3-9
In the case of B2, in assay [1], the dissociation constant (Kd) was found to be 0.032 nM, the “Kd (C6.5)/Kd (mut)” value came to 500, the “Kd (parent)/Kd (mut)” value was determined as 3.8 and the koff was found to be 1.5e-05 s⁻¹. Further, in assay [1], the on-rate constant (kon) came to 470000 M⁻¹ s⁻¹.

B3: C6-12L1 (scFv)
scFv: B1 scFv with S235A, T239S, L240R
notes: C6L1 with the VL CDR3 of C6ML3-12
For B3, in assay [1], the Kd came to 0.19 nM, the “Kd (C6.5)/Kd (mut)” value is 84, the “Kd (parent)/Kd (mut)” value was 8.4 and the koff came to 0.00013 s⁻¹. The molecule also gave a kon in assay [1] of 670000 M⁻¹ s⁻¹.

B4: C6.5D96A (scFv)
scFv: QVQLLQSGAELKKPGESLKISCKGSGYSFTSYWIAWVRQMPGKGLEYMGLIYPGDSDTKYSPSFQGQVTISVDKSVSTAYLQWSSLKPSDSAVYFCARHAVGYCSSSNCAKWPEYFQHWGQGTLVTVSSGGGGSGGGGSGGGGSQSVLTQPPSVSAAPGQKVTISCSGSSSNIGNNYVSWYQQLPGTAPKLLIYGHTNRPAGVPDRFSGSKSGTSASLAISGFRSEDEADYYCAAWDDSLSGWVFGGGTKLTVLG
notes: C6.5 VH CDR3 scan mutant; Kabat numbering
On to B4, for which, in assay [2], the equilibrium dissociation constant (Kd) came out at 45 nM, the “Kd (mutant)/Kd (C6.5)” value worked out at 2.8, the koff worked out at 0.01 s⁻¹ and the on-rate constant (kon) is 220000 M⁻¹ s⁻¹.

B5: C6.5S100cA (scFv)
scFv: B4 scFv with A100D, S107A
notes: as for B4
As for B5, in assay [2], the Kd turned out to be 24 nM, the “Kd (mutant)/Kd (C6.5)” value was 1.5, the off-rate (koff) turned out to be 0.011 s⁻¹ and the on-rate constant (kon) came to 450000 M⁻¹ s⁻¹.

B6: C6.5Q101A (scFv)
scFv: B4 scFv with A100D, Q117A
notes: as for B4
Consider B6, for which, in assay [2], the equilibrium dissociation constant (Kd) came to 8.2 nM, the “Kd (mutant)/Kd (C6.5)” value is 0.5, the dissociation rate constant (koff) is 0.0098 s⁻¹ and the kon came to 1.2e+06 M⁻¹ s⁻¹.

B7: C6-B47D6 (scFv)
scFv: B2 scFv with T108S, L116M, H117Y, V118P
notes: Combined B47 and D6 mutations on C6ML3-9
B7: in assay [1], the affinity, expressed as Kd, was 0.051 nM; the “Kd (C6.5)/Kd (mut)” value was 314; the “Kd (parent)/Kd (mut)” value was 2.2; the koff was found to be 3e-05 s⁻¹. Moreover, in assay [1], the kon amounted to 590000 M⁻¹ s⁻¹.

B8: C6-B1D5 (scFv)
scFv: B2 scFv with L116M, H117Q, V118M
notes: Combined B1 and D5 mutations on C6ML3-9
As to B8, in assay [1], the Kd is 0.035 nM, the “Kd (C6.5)/Kd (mut)” value stood at 457, the “Kd (parent)/Kd (mut)” value amounted to 3.4 and the koff worked out at 1.8e-05 s⁻¹. In addition, the on-rate (kon) in assay [1] was determined as 510000 M⁻¹ s⁻¹.

B9: C6-B47D1 (scFv)
scFv: B2 scFv with T108S
notes: Combined B47 and D1 mutations on C6ML3-9
As for B9, in assay [1], the dissociation constant Kd was 0.068 nM, the “Kd (C6.5)/Kd (mut)” value amounted to 235, the “Kd (parent)/Kd (mut)” value is 1.6 and the koff turned out to be 4.8e-05 s⁻¹. The kon in assay [1] is 710000 M⁻¹ s⁻¹.

B10: C6-B47D2 (scFv)
scFv: B2 scFv with T108S, H117G
notes: Combined B47 and D2 mutations on C6ML3-9
Take B10: in assay [1], the affinity, expressed as Kd, was 0.044 nM; the “Kd (C6.5)/Kd (mut)” value turned out to be 364; the “Kd (parent)/Kd (mut)” value came to 2.5; the koff came out at 4.3e-05 s⁻¹. Further, the kon in assay [1] was 980000 M⁻¹ s⁻¹.

B11: C6.5H102A (scFv)
scFv: B4 scFv with A100D, H118A
notes: as for B4
Turning to B11, in assay [2], binding was characterised by a dissociation constant (Kd) of 19 nM, the “Kd (mutant)/Kd (C6.5)” value was 1.2, the dissociation rate constant (koff) turned out to be 0.011 s⁻¹ and the kon was determined as 590000 M⁻¹ s⁻¹.

B12: C6-B47D5 (scFv)
scFv: B2 scFv with T108S, L116M, H117Q, V118M
notes: Combined B47 and D5 mutations on C6ML3-9
Regarding B12, in assay [1], the Kd was 0.063 nM, the “Kd (C6.5)/Kd (mut)” value worked out at 254, the “Kd (parent)/Kd (mut)” value was found to be 1.7 and the koff was 3.9e-05 s⁻¹. Moreover, in assay [1], the kon came out at 620000 M⁻¹ s⁻¹.

B13: C6.5F100lA (scFv)
scFv: B4 scFv with A100D, F116A
notes: C6.5 VH CDR3 scan mutant; Kabat numbering; also called F1001A
Regarding B13, in assay [2], the Kd is 454 nM, the “Kd (mutant)/Kd (C6.5)” value was 28.4, the off-rate constant (koff) came to 0.05 s⁻¹ and the kon came out at 110000 M⁻¹ s⁻¹.

B14: C6.5S100bA (scFv)
scFv: B4 scFv with A100D, S106A
notes: as for B4
Regarding B14, in assay [2], the affinity, expressed as Kd, was 47 nM; the “Kd (mutant)/Kd (C6.5)” value was found to be 2.9; the koff came out at 0.016 s⁻¹; the kon was determined as 340000 M⁻¹ s⁻¹.

B15: C6-B1D2 (scFv)
scFv: B2 scFv with H117G
notes: Combined B1 and D2 mutations on C6ML3-9
On to B15, for which, in assay [1], binding was characterised by a dissociation constant (Kd) of 0.015 nM, the “Kd (C6.5)/Kd (mut)” value came out at 1070, the “Kd (parent)/Kd (mut)” value worked out at 8 and the koff worked out at 1e-05 s⁻¹. This molecule also displayed a kon in assay [1] of 690000 M⁻¹ s⁻¹.

B16: C6.5Y99A (scFv)
scFv: B4 scFv with A100D, Y103A
notes: as for B4
With B16, in assay [2], the Kd stood at 59 nM, the “Kd (mutant)/Kd (C6.5)” value came out at 3.7, the koff was 0.053 s⁻¹ and the kon stood at 900000 M⁻¹ s⁻¹.

B17: C6.5C100S/C100eS (scFv)
scFv: B4 scFv with A100D, C104S, C109S
notes: as for B4
As to B17, in assay [2], the Kd came out at 280 nM, the “Kd (mutant)/Kd (C6.5)” value is 17.5, the koff came to 0.138 s⁻¹ and the on-rate constant (kon) worked out at 500000 M⁻¹ s⁻¹.

B18: C6.5N100dA (scFv)
scFv: B4 scFv with A100D, N108A
notes: as for B4
In the case of B18, in assay [2], the equilibrium dissociation constant (Kd) was 29 nM, the “Kd (mutant)/Kd (C6.5)” value is 1.8, the koff was 0.012 s⁻¹ and the on-rate (kon) turned out to be 410000 M⁻¹ s⁻¹.

B19: C6-B1D3 (scFv)
scFv: B2 scFv with H117D, V118N
notes: Combined B1 and D3 mutations on C6ML3-9
For the molecule B19, in assay [1], the dissociation constant (Kd) came to 0.013 nM, the “Kd (C6.5)/Kd (mut)” value was found to be 1230, the “Kd (parent)/Kd (mut)” value stood at 9.2 and the koff is 8e-06 s⁻¹. Further, the kon in assay [1] is 640000 M⁻¹ s⁻¹.

B20: C6.5K100gA (scFv)
scFv: B4 scFv with A100D, K111A
notes: as for B4
Consider B20, for which, in assay [2], the dissociation constant (Kd) is 9.8 nM, the “Kd (mutant)/Kd (C6.5)” value came out at 0.6, the off-rate (koff) amounted to 0.0042 s⁻¹ and the kon was 430000 M⁻¹ s⁻¹.

B21: C6-B1D6 (scFv)
scFv: B2 scFv with L116M, H117Y, V118P
notes: Combined B1 and D6 mutations on C6ML3-9
Consider B21, for which, in assay [1], the Kd was 0.032 nM, the “Kd (C6.5)/Kd (mut)” value was 500, the “Kd (parent)/Kd (mut)” value amounted to 3.8 and the koff came out at 1.3e-05 s⁻¹. In assay [1], this molecule yielded a kon of 410000 M⁻¹ s⁻¹.

B22: C6.5P100iA (scFv)
scFv: B4 scFv with A100D, P113A
notes: as for B4
With B22, in assay [2], the dissociation constant Kd is 10 nM, the “Kd (mutant)/Kd (C6.5)” value came to 0.6, the koff was 0.011 s⁻¹ and the kon came to 1.05e+06 M⁻¹ s⁻¹.

B23: C6-B47D3 (scFv)
scFv: B2 scFv with T108S, H117D, V118N
notes: Combined B47 and D3 mutations on C6ML3-9
As for B23, in assay [1], the dissociation constant (Kd) came to 0.048 nM, the “Kd (C6.5)/Kd (mut)” value is 333, the “Kd (parent)/Kd (mut)” value came out at 2.3 and the off-rate (koff) is 3.2e-05 s⁻¹. In addition, the kon in assay [1] amounted to 660000 M⁻¹ s⁻¹.

B24: C6.5V97A (scFv)
scFv: B4 scFv with A100D, V101A
notes: as for B4
Turning to B24, in assay [2], the affinity, expressed as Kd, was 48 nM; the “Kd (mutant)/Kd (C6.5)” value was 3; the koff came to 0.015 s⁻¹; the on-rate (kon) came to 310000 M⁻¹ s⁻¹.

B25: C6.5S100aA (scFv)
scFv: B4 scFv with A100D, S105A
notes: as for B4
Take B25: in assay [2], binding was put at a Kd of 28 nM, the “Kd (mutant)/Kd (C6.5)” value was found to be 1.8, the off-rate constant (koff) was found to be 0.013 s⁻¹ and the kon worked out at 470000 M⁻¹ s⁻¹.

What is called Kd is the free concentration of one partner at which half of the binding sites on the other are occupied at equilibrium, for simple one-to-one binding. What is called koff is the rate constant with which the complex falls apart. A lower koff goes with a long-lived complex. In general, kon refers to the second-order rate constant of association. Read a low kon as slower complex formation.
